Legend:
murine Dectin-1 = biological target: T1, murine Dectin-1 (Mus musculus, UniProt Q6QLQ4); assay: Galectin-coated ELISA with murine Dectin-1 IgG Fc; assay type: binding; settings: galectin-coated plates; Galectin-3/-4/-9 comparison at 2.5 μg/ml Dectin-1 IgG Fc
T1 construct: purchased InvivoGen fc-mdec1a
T1 sequence (Q6QLQ4 71-244 limits assumed): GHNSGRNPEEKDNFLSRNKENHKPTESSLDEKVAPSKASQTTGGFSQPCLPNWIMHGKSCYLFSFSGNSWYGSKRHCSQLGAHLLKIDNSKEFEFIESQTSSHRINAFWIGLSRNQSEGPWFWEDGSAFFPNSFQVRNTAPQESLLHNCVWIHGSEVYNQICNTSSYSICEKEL
Method: (§1) To investigate if Galectin-9 can bind with Dectin-1, Protein G-magnet beads (2 ml; Dynabeads) were loaded with Dectin-1 IgG Fc (1 mg) or control IgG Fc before washing and blocking. Subsequently, beads were incubated with recombinant Galectin-9 ([…]; R&D Systems) for 30 min, washed, and stained with PE-conjugated anti-Galectin-9 (Biolegend, San Diego Calif.). Galectin-9 specific staining was determined by flow cytometry. To investigate the interaction between Galectin-9 and Dectin-1 by ELISA, plates (Maxisorp, Nunc, St. Louis, Mo.) were coated with recombinant mouse Galectin-9 ([…]; R&D Systems, Minneapolis, Minn.), Galectin-3, or Galectin-4 (both […]; Biolegend) for 16 hours at 4° C., blocked with 1% BSA/PBS for 1 hour, and incubated with increasing doses of Dectin-1 IgG Fc or control IgG Fc for 2 hours. The Galectin-bound Dectin-1 IgG Fc was detected with anti-IgG-HRP. For affinity precipitation experiments, protein G-beads were loaded with Dectin-1 IgG Fc and were then incubated with the extract of 6 month old KC pancreata. Bead-bound precipitates were resuspended with loading buffer, resolved by SDS-PAGE under reduced conditions for western blotting using mAbs specific for Galectin-9. To determine whether Galectin-9 induces Dectin-1 signaling, the Dectin-1 reporter HEK293 cell line^16 (Invivogen) was treated with recombinant Galectin-9 (1-10 μg/ml; R&D Systems), d-Zymosan (1-10 μg/ml), or Curdlan (10-100 μg/ml; both Invivogen). Dectin-1 signaling was measured by detection of secreted embryonic alkaline phosphatase. In other experiments, WT and Dectin-1^−/− splenic macrophages were treated in vitro with recombinant Galectin-9 (10 ug/ml). Syk phosphorylation was measured by flow cytometry at 3 hours.
(§2) Non-pathogen derived Dectin-1 ligands have not been well-characterized. […] Bead-IgG Fc complexes were incubated with recombinant Galectin-9 and then labeled with a fluorescently-conjugated αGalectin-9 mAb and tested for fluorescence by flow cytometry. […]

[1] = test system: bone-marrow derived macrophages (BMDM); assay: Dectin-1 expression in bone-marrow derived macrophages; assay type: cell-based, mouse; settings: cytokine added to day 8 BMDM cultures for 24h
Dectin-1 IgG Fc = biological target: T2, Dectin-1 IgG Fc (Mus musculus, UniProt Q6QLQ4); assay: Protein G bead / flow cytometry Galectin-9-Dectin-1 binding; settings: recombinant Galectin-9, flow cytometry
T2 construct: purchased InvivoGen fc-mdec1a
T2 sequence (Q6QLQ4 71-244 limits assumed): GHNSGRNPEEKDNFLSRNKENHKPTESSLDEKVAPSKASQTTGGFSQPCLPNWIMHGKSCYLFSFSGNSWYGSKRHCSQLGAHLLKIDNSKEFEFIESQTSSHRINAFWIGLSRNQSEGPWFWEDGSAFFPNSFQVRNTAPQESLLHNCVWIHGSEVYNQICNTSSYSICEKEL
Method: (§3) To investigate if Galectin-9 can bind with Dectin-1, Protein G-magnet beads (2 ml; Dynabeads) were loaded with Dectin-1 IgG Fc (1 mg) or control IgG Fc before washing and blocking. Subsequently, beads were incubated with recombinant Galectin-9 ([…]; R&D Systems) for 30 min, washed, and stained with PE-conjugated anti-Galectin-9 (Biolegend, San Diego Calif.). Galectin-9 specific staining was determined by flow cytometry. To investigate the interaction between Galectin-9 and Dectin-1 by ELISA, plates (Maxisorp, Nunc, St. Louis, Mo.) were coated with recombinant mouse Galectin-9 ([…]; R&D Systems, Minneapolis, Minn.), Galectin-3, or Galectin-4 (both […]; Biolegend) for 16 hours at 4° C., blocked with 1% BSA/PBS for 1 hour, and incubated with increasing doses of Dectin-1 IgG Fc or control IgG Fc for 2 hours. The Galectin-bound Dectin-1 IgG Fc was detected with anti-IgG-HRP. […] Dectin-1 signaling was measured by detection of secreted embryonic alkaline phosphatase. […] Syk phosphorylation was measured by flow cytometry at 3 hours.
as §2

human Dectin-1 = assay: Galectin-9-coated ELISA with human Dectin-1 IgG Fc; assay type: binding; settings: Galectin-9 coated plates, increasing doses
Sequence of human Dectin-1 (Q9BXN2 114-247 limits assumed): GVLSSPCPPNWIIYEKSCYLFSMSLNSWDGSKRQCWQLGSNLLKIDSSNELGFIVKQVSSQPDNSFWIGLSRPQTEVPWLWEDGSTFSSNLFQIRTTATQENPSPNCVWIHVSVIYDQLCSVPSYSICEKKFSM
Method: as §3, §2

Dectin-1 [2] = assay: Syk phosphorylation in WT and Dectin-1-/- macrophages; assay type: cell-based, mouse; settings: 10 ug/ml for 3 hours, WT vs Dectin-1-/- macrophages, flow cytometry
Method: as §1, with “To determine whether Galectin-9 induces Dectin-1 signaling, the Dectin-1 reporter HEK293 cell line^16 (Invivogen) was treated with recombinant Galectin-9 (1-10 μg/ml; R&D Systems), d-Zymosan (1-10 μg/ml), or Curdlan (10-100 μg/ml; both Invivogen).” left out, “In other experiments, WT and Dectin-1^−/− splenic macrophages were treated in vitro with recombinant Galectin-9 (10 ug/ml).” left out

Dectin-1 [3] = assay: Dectin-1 reporter HEK293 cell line (secreted embryonic alkaline phosphatase); assay type: cell-based; settings: low and high doses (1-10 μg/ml)
Method: as §1, with “To determine whether Galectin-9 induces Dectin-1 signaling, the Dectin-1 reporter HEK293 cell line^16 (Invivogen) was treated with recombinant Galectin-9 (1-10 μg/ml; R&D Systems), d-Zymosan (1-10 μg/ml), or Curdlan (10-100 μg/ml; both Invivogen).” left out, “In other experiments, WT and Dectin-1^−/− splenic macrophages were treated in vitro with recombinant Galectin-9 (10 ug/ml).” left out

B1: Galectin-3: recombinant Galectin-3 (Biolegend) coated on ELISA plates (protein, UniProt P16110 2-264, looked up)
Galectin-3: ADSFSLNDALAGSGNPNPQGYPGAWGNQPGAGGYPGAAYPGAYPGQAPPGAYPGQAPPGAYPGQAPPSAYPGPTAPGAYPGPTAPGAYPGQPAPGAFPGQPGAPGAYPQCSGGYPAAGPYGVPAGPLTVPYDLPLPGGVMPRMLITIMGTVKPNANRIVLDFRRGNDVAFHFNPRFNENNRRVIVCNTKQDNNWGKEERQSAFPFESGKPFKIQVLVEADHFKVAVNDAHLLQYNHRMKNLREISQLGISGDITLTSANHAMI
Murine Dectin-1
  binding of murine Dectin-1 IgG Fc on ELISA: did not avidly bind

B2: Galectin-4: recombinant Galectin-4 (Biolegend) coated on ELISA plates (protein, UniProt Q8K419 1-326, looked up)
Galectin-4: MAYVPAPGYQPTYNPTLPYKRPIPGGLSVGMSVYIQGMAKENMRRFHVNFAVGQDDGADVAFHFNPRFDGWDKVVFNTMQSGQWGKEEKKKSMPFQKGKHFELVFMVMPEHYKVVVNGNSFYEYGHRLPVQMVTHLQVDGDLELQSINFLGGQPAAAPYPGAMTIPAYPAGSPGYNPPQMNTLPVMTGPPVFNPRVPYVGALQGGLTVRRTIIIKGYVLPTARNFVINFKVGSSGDIALHLNPRIGDSVVRNSFMNGSWGAEERKVAYNPFGPGQFFDLSIRCGMDRFKVFANGQHLFDFSHRFQAFQMVDTLEINGDITLSYVQI
Murine Dectin-1
  binding of murine Dectin-1 IgG Fc on ELISA: did not avidly bind

B3: IL-12: cytokine added to BMDM cultures (protein, UniProt P43431 23-215; P43432 23-335, looked up)
Interleukin-12 subunit alpha: RVIPVSGPARCLSQSRNLLKTTDDMVKTAREKLKHYSCTAEDIDHEDITRDQTSTLKTCLPLELHKNESCLATRETSSTTRGSCLPPQKTSLMMTLCLGSIYEDLKMYQTEFQAINAALQNHNHQQIILDKGMLVAIDELMQSLNHNGETLRQKPPVGEADPYRVKMKLCILLHAFSTRVVTINRVMGYLSSA
Interleukin-12 subunit beta: MWELEKDVYVVEVDWTPDAPGETVNLTCDTPEEDDITWTSDQRHGVIGSGKTLTITVKEFLDAGQYTCHKGGETLSHSHLLLHKKENGIWSTEILKNFKNKTFLKCEAPNYSGRFTCSWLVQRNMDLKFNIKSSSSSPDSRAVTCGMASLSAEKVTLDQRDYEKYSVSCQEDVTCPTAEETLPIELALEARQQNKYENYSTSFFIRDIIKPDPPKNLQMKPLKNSQVEVSWEYPDSWSTPHSYFSLKFFVRIQRKKEKMKETEEGCNQKGAFLVEKTSTEVQCKGGNVCVQAQDRYYNSSCSKWACVPCRVRS
[1]
  Dectin-1 expression in BMDM: did not influence Dectin-1 expression

B4: Galectin-9: recombinant Galectin-9 (R&D Systems), lectin identified as Dectin-1 ligand (protein)
chain: MALFSAQSPYINPIIPFTGPIQGGLQEGLQVTLQGTTKSFAQRFVVNFQNSFNGNDIAFHFNPRFEEGGYVVCNTKQNGQWGPEERKMQMPFQKGMPEFELCFLVQRSEFKVMVNKKFVQYQHRVPYHLVDTIAVSGCLKLSFITFQNSAAPVQHVFSTVQFSQPVQFPRTPKGRKQKTQNFRPAHQAPMAQTTIHMVHSTPGQMFSTPGIPPVVYPTPAYTIPFYTPIPNGLYPSKSIMISGNVLPDATRFHINLRCGGDIAFHLNPRFNENAVVRNTQINNSWGQEERSLLGRMPFSRGQSFSVWIICEGHCFKVAVNGQHMCEYYHRLKNLQDINTLEVAGDIQLTHVQT
Dectin-1 IgG Fc
  binding to bead-bound Dectin-1 IgG Fc: avidly ligated
Murine Dectin-1
  binding of murine Dectin-1 IgG Fc on ELISA: dose-dependent manner
Human Dectin-1
  binding of human Dectin-1 IgG Fc on ELISA: dose-dependent manner
Dectin-1 [2]
  Syk phosphorylation: activated Syk in a Dectin-1-dependent manner
Dectin-1 [3]
  Dectin-1 activation (NF-κB signaling) in reporter cells: induced NF-κB signaling

Source: patent US20180044422A1, “TREATING SOLID TUMOR BY TARGETING DECTIN-1 SIGNALING” (New York University, priority 2016, published 2018)
